The labels stand for the following.
B5: HA-metap2 (other, UniProt P50579 1-478, looked up, not shown: small tags and cut ends)
chain: MAGVEEVAASGSHLNGDLDPDDREEGAASTAEEAAKKKRRKKKKSKGPSAAGEQEPDKESGASVDEVARQLERSALEDKERDEDDEDGDGDGDGATGKKKKKKKKKRGPKVQTDPPSVPICDLYPNGVFPKGQECEYPPTQDGRTAAWRTTSEEKKALDQASEEIWNDFREAAEAHRQVRKYVMSWIKPGMTMIEICEKLEDCSRKLIKENGLNAGLAFPTGCSLNNCAAHYTPNAGDTTVLQYDDICKIDFGTHISGRIIDCAFTVTFNPKYDTLLKAVKDATNTGIKCAGIDVRLCDVGEAIQEVMESYEVEIDGKTYQVKPIRNLNGHSIGQYRIHAGKTVPIVKGGEATRMEEGEVYAIETFGSTGKGVVHDDMECSHYMKNFDVGHVPIRLPRTKHLLNVINENFGTLAFCRRWLDRLGESKYLMALKNLCDLGIVDPYPPLCDIKGSYTAQFEHTILLRPTCKEVVSRGDDY
notes: Negative control of the co-immunoprecipitations; also called metap2 control protein

The target in assay [1] is B5. Nature of the assay: co-immunoprecipitation, anti-HA IP from transfected HEK-293T cells, immunoblot for endogenous CASTOR1. A general note: In western blotting, separated proteins are transferred to a membrane and probed.
The target of assay [2] is T1, endogenous GATOR2 complex (Seh1L, WDR59, WDR24, Sec13 and Mios) (human, UniProt Q9NXC5 1-875; Q96S15 1-790; Q6PJI9 1-974; P55735 2-322; Q96EE3 1-360, limits assumed).
T1 construct: Five-subunit complex; In most blots its presence is read from the mios band; also called detected by mios
Nature of the assay: co-immunoprecipitation, anti-FLAG IP of GATOR2 from a HEK-293T line with endogenously FLAG-tagged WDR59, immunoblot for endogenous CASTOR1. The procedure: (§1) FIG. 3A, FIG. 3B, FIG. 3C, FIG. 3D, FIG. 3E and FIG. 3F depict arginine regulates the interaction of GATOR2 with CASTOR1-homodimers and CASTOR1-CASTOR2 heterodimers in cells and in vitro. […] HEK-293T cells cotransfected with the indicated cDNAs were deprived of amino acids for 50 min or starved and restimulated with amino acids for 10 min. Anti-HA immunoprecipitates and cell lysates were analyzed by immunoblotting for levels of the indicated proteins. […] A HEK-293T cell line expressing endogenously FLAG-tagged WDR59 was treated as in (3A) and anti-FLAG immunoprecipitates were analyzed by immunoblotting for the indicated proteins. […] Cells were deprived of leucine, arginine, or all amino acids for 50 min, and restimulated for 10 min with the respective amino acids where indicated. Anti-HA immunoprecipitates were prepared and analyzed as in (3A). […] Anti-HA immunoprecipitates were prepared from HEK-293T cells expressing the indicated cDNAs and deprived of amino acids for 50 min. Indicated amino acids were added directly to the immunoprecipitates, which after re-washing, were analyzed as in (3A). […] The experiment was performed and analyzed as in (3D), except using the indicated concentrations of arginine. […] Anti-HA immunoprecipitates were prepared and analyzed as in (3A).

Assay [3] addresses complete GATOR2 complex, recombinant (WDR24-FLAG, WDR59, mios, sec13, seh1L co-expressed) (UniProt Q96S15 1-790; Q6PJI9 1-974; Q9NXC5 1-875; P55735 1-322; Q96EE3 1-360, limits assumed). Nature of the assay: co-immunoprecipitation, anti-FLAG IP (bait WDR24-FLAG) from co-transfected HEK-293T cells, immunoblot for HA-tagged CASTOR1. An excerpt:
FIG. 7A, FIG. 7B, FIG. 7C, FIG. 7D, FIG. 7E and FIG. 7F depicts CASTOR1 and CASTOR2 homologs are present in vertebrates and invertebrates, and the CASTORs and Sestrins bind to distinct sites on GATOR2. […] Sequence alignments are colored with respect to sequence identity as in FIG. 1C. The first and second ACT domains are annotated above the alignment with blue and orange bars, respectively. […] The sequence alignment is annotated as in (7B). FIG. 7E depicts the GATOR2 components WDR24, mios, and seh1L form a minimal complex that is sufficient to co-immunoprecipitate CASTOR1. HEK-293T cells were cotransfected with the indicated cDNAs, and anti-FLAG immunoprecipitates were analyzed as in FIG. 1D.
Where indicated, for transient cotransfection experiments, 2 million HEK-293T cells were plated in 10 cm dishes and transfected 24 hrs later using the polyethylenimine method (Boussif et al., 1995) with the indicated pRK5-based expression vectors: 300 ng HA-metap2, 40 ng CASTOR1-HA, 80 ng CASTOR1-FLAG, 40 ng CASTOR2-HA, 80 ng CASTOR2-FLAG; 100 ng WDR24-FLAG, 100 ng WDR59, 100 ng mios, 150 ng sec13, 150 ng seh1L, 10 ng or 40 ng or 100 ng or 600 ng of myc-Sestrin2 or myc-CASTOR2; 2 ng FLAG-56K1, 15 ng or 60 ng HA-CASTOR2, 75 ng and 175 ng of CASTOR1-HA. The total amount of plasmid DNA in each transfection was normalized to 5 μg with empty pRK5. […]

The target of assay [4] is T1, endogenous GATOR2 complex (Seh1L, …). Description: co-immunoprecipitation, anti-HA IP from HEK-293T cells deprived 50 min of all amino acids, leucine or arginine, or restimulated 10 min; immunoblot for endogenous mios. As to the method: as §1
The target in assay [5] is B5. Description: co-immunoprecipitation, anti-HA IP from transfected HEK-293T cells.
Assay [6] addresses T2, GSK3β (human, UniProt P49841).
T2 construct: endogenous, untagged; also called endogenous GSK3β, control immunoprecipitation
Nature of the assay: control immunoprecipitation with an anti-GSK3β antibody from HEK-293T cells starved of or restimulated with amino acids. The procedure:
FIG. 9A, FIG. 9B, FIG. 9C, FIG. 9D and FIG. 9E depict arginine regulates the interaction of GATOR2 with CASTOR1-containing complexes in cells and in vitro. […] HEK-293T cells cotransfected with the indicated cDNAs and stably expressing the indicated shRNAs were deprived of amino acids in the cell media for 50 min. Anti-HA immunoprecipitates were analyzed by immunoblotting for the indicated proteins. […] HEK-293T cells were starved or restimulated with amino acids, and immunoprecipitates were prepared from these cells using an antibody directed against GSK3β or WDR24. Immunoprecipitates were analyzed by immunoblotting for the indicated proteins. […] Stable expression lines of HEK-293T cells stably expressing the denoted proteins were cotransfected with the indicated cDNAs and treated as in FIG. 3A. Anti-HA immunoprecipitates were analyzed by immunoblotting for the levels of indicated proteins. FIG. 9D depicts deprivation of arginine, but not leucine, is sufficient to promote the association of endogenous GATOR2 with recombinant CASTOR1-CASTOR2 heterodimers. HEK-293T cells cotransfected with the indicated cDNAs were treated and analyzed as in FIG. 3C. […] Anti-HA immunoprecipitates were prepared and analyzed as in FIG. 3E.

The target in assay [7] is T1, endogenous GATOR2 complex (Seh1L, …). Nature of the assay: co-immunoprecipitation, anti-HA IP from transfected HEK-293T cells starved of all amino acids 50 min, immunoblot for endogenous mios. As to the method: FIG. 8A depicts validation of the anti-serum used to detect endogenous CASTOR2. Lysates were prepared from HEK-293T lines stably expressing the indicated shRNAs and analyzed by immunoblotting for levels of indicated proteins. FIG. 8B depicts validation of the anti-serum used to detect endogenous CASTOR1. Lysates were prepared from HEK-293T stably lines expressing the indicated shRNAs and analyzed as in (8C). The arrow denotes the band corresponding to endogenous CASTOR1. […] HEK-293T cells were cotransfected with the indicated cDNAs in expression vectors, starved of all amino acids for 50 minutes, and anti-HA immunoprecipitates were analyzed as in FIG. 1D. […] HEK-293T cells were cotransfected with the indicated cDNAs in expression vectors, starved of all amino acids for 50 minutes, and anti-HA immunoprecipitates were analyzed as in FIG. 1D.

T2 sequence (P49841 whole entry): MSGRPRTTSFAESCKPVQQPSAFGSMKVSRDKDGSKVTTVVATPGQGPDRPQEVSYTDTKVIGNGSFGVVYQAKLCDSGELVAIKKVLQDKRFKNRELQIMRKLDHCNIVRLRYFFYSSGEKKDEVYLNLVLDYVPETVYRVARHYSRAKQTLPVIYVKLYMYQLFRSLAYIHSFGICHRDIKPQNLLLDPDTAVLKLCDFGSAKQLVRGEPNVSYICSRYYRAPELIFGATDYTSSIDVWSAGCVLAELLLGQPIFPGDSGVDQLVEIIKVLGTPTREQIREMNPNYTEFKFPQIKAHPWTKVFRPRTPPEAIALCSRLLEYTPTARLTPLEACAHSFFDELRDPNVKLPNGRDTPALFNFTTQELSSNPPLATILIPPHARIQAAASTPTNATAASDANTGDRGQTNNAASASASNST

B1: endogenous CASTOR1 (other, human, UniProt Q8WTX7 1-329, looked up)
chain: MELHILEHRVRVLSVARPGLWLYTHPLIKLLFLPRRSRCKFFSLTETPEDYTLMVDEEGFKELPPSEFLQVAEATWLVLNVSSHSGAAVQAAGVTKIARSVIAPLAEHHVSVLMLSTYQTDFILVREQDLSVVIHTLAQEFDIYREVGGEPVPVTRDDSSNGFPRTQHGPSPTVHPIQSPQNRFCVLTLDPETLPAIATTLIDVLFYSHSTPKEAASSSPEPSSITFFAFSLIEGYISIVMDAETQKKFPSDLLLTSSSGELWRMVRIGGQPLGFDECGIVAQIAGPLAAADISAYYISTFNFDHALVPEDGIGSVIEVLQRRQEGLAS
notes: Detected with an anti-CASTOR1 antiserum; also called GATSL3
On to B1, for which the values for the binding result in assay [1] and in assay [2] were “no binding” and “binds”, respectively.

B2: recombinant CASTOR1 (Cellular Arginine Sensor for mTORC1; protein encoded by the GATS protein-like 3 gene) (other, human, UniProt Q8WTX7 1-329, looked up, not shown: small tags and cut ends)
chain: MELHILEHRVRVLSVARPGLWLYTHPLIKLLFLPRRSRCKFFSLTETPEDYTLMVDEEGFKELPPSEFLQVAEATWLVLNVSSHSGAAVQAAGVTKIARSVIAPLAEHHVSVLMLSTYQTDFILVREQDLSVVIHTLAQEFDIYREVGGEPVPVTRDDSSNGFPRTQHGPSPTVHPIQSPQNRFCVLTLDPETLPAIATTLIDVLFYSHSTPKEAASSSPEPSSITFFAFSLIEGYISIVMDAETQKKFPSDLLLTSSSGELWRMVRIGGQPLGFDECGIVAQIAGPLAAADISAYYISTFNFDHALVPEDGIGSVIEVLQRRQEGLAS
notes: Expressed from pRK5 vectors in HEK-293T cells; which tag was used depends on the experiment; also called GATSL3; CASTOR1-HA
Regarding B2, the binding result in assay [3] was “binds”.

B3: CASTOR1 homodimer (other, human, not shown: small tags and cut ends)
chain 1: MELHILEHRVRVLSVARPGLWLYTHPLIKLLFLPRRSRCKFFSLTETPEDYTLMVDEEGFKELPPSEFLQVAEATWLVLNVSSHSGAAVQAAGVTKIARSVIAPLAEHHVSVLMLSTYQTDFILVREQDLSVVIHTLAQEFDIYREVGGEPVPVTRDDSSNGFPRTQHGPSPTVHPIQSPQNRFCVLTLDPETLPAIATTLIDVLFYSHSTPKEAASSSPEPSSITFFAFSLIEGYISIVMDAETQKKFPSDLLLTSSSGELWRMVRIGGQPLGFDECGIVAQIAGPLAAADISAYYISTFNFDHALVPEDGIGSVIEVLQRRQEGLAS
chain 2: MELHILEHRVRVLSVARPGLWLYTHPLIKLLFLPRRSRCKFFSLTETPEDYTLMVDEEGFKELPPSEFLQVAEATWLVLNVSSHSGAAVQAAGVTKIARSVIAPLAEHHVSVLMLSTYQTDFILVREQDLSVVIHTLAQEFDIYREVGGEPVPVTRDDSSNGFPRTQHGPSPTVHPIQSPQNRFCVLTLDPETLPAIATTLIDVLFYSHSTPKEAASSSPEPSSITFFAFSLIEGYISIVMDAETQKKFPSDLLLTSSSGELWRMVRIGGQPLGFDECGIVAQIAGPLAAADISAYYISTFNFDHALVPEDGIGSVIEVLQRRQEGLAS
notes: also called CASTOR1-HA with CASTOR1-FLAG; CASTOR1-containing dimers
For B3, in assay [4], the binding result was “binds”.

B4: endogenous CASTOR2 (other, human, UniProt A6NHX0 1-329, looked up)
chain: MELHILEHRLQVASVAKESIPLFTYGLIKLAFLSSKTRCKFFSLTETPEDYTIIVDEEGFLELPSSEHLSVADATWLALNVVSGGGSFSSSQPIGVTKIAKSVIAPLADQNISVFMLSTYQTDFILVRERDLPFVTHTLSSEFTILRVVNGETVAAENLGITNGFVKPKLVQRPVIHPLSSPSNRFCVTSLDPDTLPAVATLLMDVMFYSNGVKDPMATGDDCGHIRFFSFSLIEGYISLVMDVQTQQRFPSNLLFTSASGELWKMVRIGGQPLGFDECGIVAQISEPLAAADIPAYYISTFKFDHALVPEENINGVISALKVSQAEKH
notes: Detected with an anti-CASTOR2 antiserum; also called GATSL2
For B4, the binding result in assay [5] and in assay [6] was “no binding” in each case.
As to B5, the binding result in assay [7] is “no binding”.

The values above are taken from patent US20190025321A1 (WHITEHEAD INSTITUTE FOR BIOMEDICAL RESEARCH, published 2019).
